The values that follow are results of earlier work, collected in PMC5998221.

Among the targets are Asp101 (UniProt position 119, KKIVSDGNGMN); Asp119 (UniProt position 137, RCKGTDVQAWI); Asp18 (UniProt position 36, KRHGLDNYRGY); Asp48 (UniProt position 66, TNRNTDGSTDY); Asp52 (UniProt position 70, TDGSTDYGILQ); Asp66 (UniProt position 84, RWWCNDGRTPG); Asp87 (UniProt position 105, ALLSSDITASV); Glu35 (UniProt position 53, CAAKFESNFNT); Glu7 (UniProt position 25, VFGRCELAAAM).

For “Hen egg white lysozyme (HEWL, lysozyme C) (Gallus gallus)”, the pKa in the data set with Asp101 is 4.5; in the data set with Asp119 it was 3.5; with Asp18, 2.8; in the data set with Asp48 it was 1.4; with Asp52 it was 3.6; with Asp66, 1.2. In addition, the pKa with Asp87 is listed as 2.2; with Glu35 it was 6.1; with Glu7, 2.6.
